B1: His6-Sso2 (cytosolic domain, a.a. 1–270) (domain or fragment, yeast, UniProt P39926 1-270, looked up)
chain: MSNANPYENNNPYAENYEMQEDLNNAPTGHSDGSDDFVAFMNKINSINANLSRYENIINQIDAQHKDLLTQVSEEQEMELRRSLDDYISQATDLQYQLKADIKDAQRDGLHDSNKQAQAENCRQKFLKLIQDYRIIDSNYKEESKEQAKRQYTIIQPEATDEEVEAAINDVNGQQIFSQALLNANRRGEAKTALAEVQARHQELLKLEKTMAELTQLFNDMEELVIEQQENVDVIDKNVEDAQQDVEQGVGHTNKAVKSARKARKNKIRC
notes: Sso2, yeast t-SNARE, cytosolic domain a.a; 1-270; also called pG707
B4: Sec3 N-terminal domain (a.a. 75–320) (domain or fragment, yeast, UniProt P33332 75-320, looked up)
chain: SNFLAEQYERDRKAIINCCFSRPDHKTGEPPNNYITHVRIIEDSKFPSSRPPPDSKLENKKKRLLILSAKPNNAKLIQIHKARENSDGSFQIGRTWQLTELVRVEKDLEISEGFILTMSKKYYWETNSAKERTVFIKSLITLYIQTFEGHVPELVNWDLSLFYLDERSYQRAVITNRPGSVSPIKSPTSNFTTNTTQSVGSVPFSAPTERTRRSETESVNPVSTPASVEYHAGMKSLNKAPYSSNS
notes: Sec3, yeast exocyst subunit, N-terminal domain a.a; 75-320 (contains the PH domain); Cloned in the custom vector MalpET; tag cut off by tobacco etch virus protease; also called Sec3(a.a. 75–320); source: E. coli BL21(DE3), purified (Ni-HiTrap, HiTrap-Q HP, Superdex-200); not shown: MBP-His10, N-terminal, cleaved

Legend:
Conditions in all cases: both partners purified
[1] = target: T1, GST-Sec3N (Sec3 N-terminus, a.a. 1–320) (yeast, UniProt P33332 1-320); test: pull-down; GST-Sec3N on glutathione Sepharose with His6-Sso2 or His6-Sec9C, or with both in three orders of addition (simultaneous; Sec3N and Sso2 pre-incubated 30 min; Sso2 and Sec9C pre-incubated 2 h); 5 μg His6-Sec9C; Coomassie blue
T1 construct: Sec3, yeast exocyst subunit, N-terminus a.a; 1-320; also called pG1860; source: E. coli BL21(DE3), purified (Glutathione Sepharose 4B)
T1 sequence (looked up): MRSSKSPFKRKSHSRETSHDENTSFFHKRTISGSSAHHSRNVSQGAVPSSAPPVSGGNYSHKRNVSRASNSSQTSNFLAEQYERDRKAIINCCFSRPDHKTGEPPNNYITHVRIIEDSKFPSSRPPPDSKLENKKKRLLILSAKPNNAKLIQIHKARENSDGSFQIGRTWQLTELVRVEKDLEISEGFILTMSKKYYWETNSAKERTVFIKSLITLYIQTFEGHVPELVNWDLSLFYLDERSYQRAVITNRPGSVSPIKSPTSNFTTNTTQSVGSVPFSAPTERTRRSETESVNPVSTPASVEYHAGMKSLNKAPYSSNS

[2] = target: B1; test: pull-down; time course as a6, but His6-Sso2 (2 μM) pre-incubated with His6-Sec3N (2 μM) for 30 min at 25 °C before GST-Sec9C (20 μg) on glutathione Sepharose 4B; apparent rate constant from a second-order fit
[3] = target: T2, His6-Sso2-mutHL2 (a.a. 1–270, 170DVNGQ174 to 170GSSGG174) (yeast, UniProt P39926 1-270, 170DVNGQ174 to 170GSSGG174); test: pull-down; time course: His6-Sso2 (2 μM) alone added to GST-Sec9C (20 μg) on glutathione Sepharose 4B, 100 μl, 25 °C; bound Sso2 quantified from Coomassie gels; apparent rate constant from a second-order fit
T2 construct: Sso2, yeast t-SNARE, cytosolic domain a.a; 1-270, mutated directly from pG707; also called pG1971
T2 sequence (looked up): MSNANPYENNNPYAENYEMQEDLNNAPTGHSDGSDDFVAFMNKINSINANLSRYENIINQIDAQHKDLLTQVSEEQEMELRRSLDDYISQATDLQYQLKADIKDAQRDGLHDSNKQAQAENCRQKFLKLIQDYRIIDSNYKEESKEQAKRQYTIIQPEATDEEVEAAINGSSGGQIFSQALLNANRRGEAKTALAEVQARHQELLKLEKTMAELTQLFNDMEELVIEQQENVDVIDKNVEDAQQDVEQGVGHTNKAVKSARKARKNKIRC

[4] = target: B1; test: as above
[5] = target: B4; test: crystal structure; crystal form 1, space group C222(1); 0.1 M HEPES pH 7.0, 0.2 M NaCl, 25% PEG 3350; 2.20 Å
[6] = target: T3, Sso2 (a.a. 1–270), as used in size-exclusion chromatography (yeast, UniProt P39926 1-270); test: SEC; Superdex-200 16/60 column; proteins applied individually or in mixture, Sso2 with excess Sec3N
T3 construct: Sso2, yeast t-SNARE, a.a; The text says that this complex was later used for crystallization, for which the methods give Sso2 a.a; 36-227 with the His6 tag cleaved; the legend's limits are kept
T3 sequence (looked up): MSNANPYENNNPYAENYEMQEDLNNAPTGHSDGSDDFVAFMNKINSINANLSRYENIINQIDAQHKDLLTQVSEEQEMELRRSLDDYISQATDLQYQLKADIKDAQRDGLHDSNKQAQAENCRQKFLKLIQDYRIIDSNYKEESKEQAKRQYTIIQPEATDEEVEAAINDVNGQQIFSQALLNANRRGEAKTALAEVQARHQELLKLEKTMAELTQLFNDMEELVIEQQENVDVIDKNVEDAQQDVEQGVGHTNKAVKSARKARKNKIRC

[7] = target: T1, GST-Sec3N (Sec3 N-terminus, a.a. 1–320); test: co-sedimentation; liposomes containing Sso2 incubated with Sec9C in the presence or absence of Sec3N at 25 °C for 30 min; liposomes collected by sedimentation; SDS-PAGE, Coomassie blue; Sso2-free liposomes as control

B1: binds [1].

B2: GST-tagged Sec9 C-terminal SNARE domain (a.a. 414–651) (domain or fragment, yeast, UniProt P40357 414-651, looked up)
chain: EEARQQQEEDEAVDEIKQEIKFTKQSSVASTRNTLKMAQDAERAGMNTLGMLGHQSEQLNNVEGNLDLMKVQNKVADEKVAELKKLNRSILAVHVSNPFNSKRRRREREEQLKNRKIEEKLMREQTSQQLSQSTQRIEGAMNANNNISEVRERYQRKNVLEKAKRYQFENDEEDDEMELEIDRNLDQIQQVSNRLKKMALTTGKELDSQQKRLNNIEESTDDLDINLHMNTNRLAGIR
notes: Sec9, yeast t-SNARE (SNAP-23 homologue), C-terminal SNARE domain a.a; 414-651; also called GST-Sec9C; pG1067; source: E. coli BL21(DE3), purified (Glutathione Sepharose 4B)
For B2, the kon [2] was 200 ± 90 M⁻¹ s⁻¹, the binding result [3] was “binds” and the kon [4] was 15.2 ± 0.6 M⁻¹ s⁻¹.

B3: Sso2 Habc and SNARE motif (a.a. 36–227) (domain or fragment, yeast, UniProt P39926 36-227, looked up)
chain: DFVAFMNKINSINANLSRYENIINQIDAQHKDLLTQVSEEQEMELRRSLDDYISQATDLQYQLKADIKDAQRDGLHDSNKQAQAENCRQKFLKLIQDYRIIDSNYKEESKEQAKRQYTIIQPEATDEEVEAAINDVNGQQIFSQALLNANRRGEAKTALAEVQARHQELLKLEKTMAELTQLFNDMEELVIE
notes: Sso2, yeast t-SNARE, Habc and the SNARE motif, a.a; 36-227; Cloned in pET15b; tag removed by thrombin; also called Sso2 (a.a. 36–227); source: E. coli BL21(DE3), purified (Ni-HiTrap, HiTrap-Q HP, Superdex-200); not shown: His6, N-terminal, cleaved
B3: binds [5].

B4: binds [6].

B5: Sso2 reconstituted in liposomes (natural protein, yeast, UniProt P39926 1-295, looked up)
chain: MSNANPYENNNPYAENYEMQEDLNNAPTGHSDGSDDFVAFMNKINSINANLSRYENIINQIDAQHKDLLTQVSEEQEMELRRSLDDYISQATDLQYQLKADIKDAQRDGLHDSNKQAQAENCRQKFLKLIQDYRIIDSNYKEESKEQAKRQYTIIQPEATDEEVEAAINDVNGQQIFSQALLNANRRGEAKTALAEVQARHQELLKLEKTMAELTQLFNDMEELVIEQQENVDVIDKNVEDAQQDVEQGVGHTNKAVKSARKARKNKIRCLIICFIIFAIVVVVVVVPSVVETRK
notes: Sso2, yeast t-SNARE, called the full-length Sso2 in the fusion assays; also called Sso2 liposomes; t-SNARE liposomes reconstituted with Sso2; source: reconstituted in POPC/DOPS liposomes
B5: binds [7].

Reference: publication PMC5267525, “Sec3 promotes the initial binary t-SNARE complex assembly and membrane fusion” (Nature Communications, 2017)
